Experimental data reported in patent publication US20040191812, “Target-dependent transcription using deletion mutants of N4 RNA polymerase” (published 2004).

Legend:
[1] = target: N4 mini-vRNAP K670A K670A (mini-vRNAP numbering) (Bacteriophage N4) (UniProt Q859P9); assay: filter; details: wild-type affinity; method inferred
[2] = target: T1, N4 mini-vRNAP (His-tagged) (Bacteriophage N4, UniProt Q859P9 SEQ:34-1143); assay: filter; wild-type affinity; UV crosslinks; details: tags: N-terminal hexahistidine (pBAD); label: 32P end-label; hairpin
T1 chain: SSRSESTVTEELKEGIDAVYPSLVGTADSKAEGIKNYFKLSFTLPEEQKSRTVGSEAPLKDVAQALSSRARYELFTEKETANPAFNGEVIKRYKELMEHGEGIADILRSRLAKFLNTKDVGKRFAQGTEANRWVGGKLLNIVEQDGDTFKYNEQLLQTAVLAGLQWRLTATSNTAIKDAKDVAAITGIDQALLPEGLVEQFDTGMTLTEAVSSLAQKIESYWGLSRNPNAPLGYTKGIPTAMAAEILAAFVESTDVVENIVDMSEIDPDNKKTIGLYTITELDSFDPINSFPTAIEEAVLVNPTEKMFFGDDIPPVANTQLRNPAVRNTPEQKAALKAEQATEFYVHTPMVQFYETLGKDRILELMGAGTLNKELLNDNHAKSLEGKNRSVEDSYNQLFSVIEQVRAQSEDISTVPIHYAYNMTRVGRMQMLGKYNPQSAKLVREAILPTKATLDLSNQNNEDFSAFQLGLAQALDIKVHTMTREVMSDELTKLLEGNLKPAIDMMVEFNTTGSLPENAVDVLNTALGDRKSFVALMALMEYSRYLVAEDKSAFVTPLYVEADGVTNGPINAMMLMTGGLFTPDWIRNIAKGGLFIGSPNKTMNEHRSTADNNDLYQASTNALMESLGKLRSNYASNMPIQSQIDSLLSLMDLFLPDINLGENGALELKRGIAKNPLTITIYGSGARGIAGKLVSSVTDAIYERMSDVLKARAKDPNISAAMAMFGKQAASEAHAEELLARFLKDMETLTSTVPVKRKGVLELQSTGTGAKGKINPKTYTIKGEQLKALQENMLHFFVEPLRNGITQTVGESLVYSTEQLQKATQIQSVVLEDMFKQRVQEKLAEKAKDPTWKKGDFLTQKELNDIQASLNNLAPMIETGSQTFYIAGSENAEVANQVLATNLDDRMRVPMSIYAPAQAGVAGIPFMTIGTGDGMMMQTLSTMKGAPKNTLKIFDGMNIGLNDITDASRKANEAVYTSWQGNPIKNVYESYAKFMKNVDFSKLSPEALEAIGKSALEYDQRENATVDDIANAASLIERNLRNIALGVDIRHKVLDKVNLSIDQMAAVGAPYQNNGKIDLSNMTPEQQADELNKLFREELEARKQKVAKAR
Description: To study the sequence determinants of promoter binding, 20 base-long promoter oligonucleotides, containing the wild-type vRNAP promoter P2 sequence and substituted at every position with a single 5-Iodo-dU, were used. Whenever substitutions were made in the stem, the corresponding pairing base was changed to A. These oligonucleotides were ³²P end-labeled and used to determine the enzyme's affinity for promoter DNAs by a filter binding assay and the ability to crosslink to mini-vRNAP upon UV irradiation at 320 nm.

N4 mini-vRNAP Y678F = target: T2, N4 mini-vRNAP Y678F (Bacteriophage N4, UniProt Q859P9 SEQ:34-1143); assay: UV crosslinking as well as wild type; details: tags: N-terminal hexahistidine (pBAD); label: 32P end-label; hairpin
T2 chain: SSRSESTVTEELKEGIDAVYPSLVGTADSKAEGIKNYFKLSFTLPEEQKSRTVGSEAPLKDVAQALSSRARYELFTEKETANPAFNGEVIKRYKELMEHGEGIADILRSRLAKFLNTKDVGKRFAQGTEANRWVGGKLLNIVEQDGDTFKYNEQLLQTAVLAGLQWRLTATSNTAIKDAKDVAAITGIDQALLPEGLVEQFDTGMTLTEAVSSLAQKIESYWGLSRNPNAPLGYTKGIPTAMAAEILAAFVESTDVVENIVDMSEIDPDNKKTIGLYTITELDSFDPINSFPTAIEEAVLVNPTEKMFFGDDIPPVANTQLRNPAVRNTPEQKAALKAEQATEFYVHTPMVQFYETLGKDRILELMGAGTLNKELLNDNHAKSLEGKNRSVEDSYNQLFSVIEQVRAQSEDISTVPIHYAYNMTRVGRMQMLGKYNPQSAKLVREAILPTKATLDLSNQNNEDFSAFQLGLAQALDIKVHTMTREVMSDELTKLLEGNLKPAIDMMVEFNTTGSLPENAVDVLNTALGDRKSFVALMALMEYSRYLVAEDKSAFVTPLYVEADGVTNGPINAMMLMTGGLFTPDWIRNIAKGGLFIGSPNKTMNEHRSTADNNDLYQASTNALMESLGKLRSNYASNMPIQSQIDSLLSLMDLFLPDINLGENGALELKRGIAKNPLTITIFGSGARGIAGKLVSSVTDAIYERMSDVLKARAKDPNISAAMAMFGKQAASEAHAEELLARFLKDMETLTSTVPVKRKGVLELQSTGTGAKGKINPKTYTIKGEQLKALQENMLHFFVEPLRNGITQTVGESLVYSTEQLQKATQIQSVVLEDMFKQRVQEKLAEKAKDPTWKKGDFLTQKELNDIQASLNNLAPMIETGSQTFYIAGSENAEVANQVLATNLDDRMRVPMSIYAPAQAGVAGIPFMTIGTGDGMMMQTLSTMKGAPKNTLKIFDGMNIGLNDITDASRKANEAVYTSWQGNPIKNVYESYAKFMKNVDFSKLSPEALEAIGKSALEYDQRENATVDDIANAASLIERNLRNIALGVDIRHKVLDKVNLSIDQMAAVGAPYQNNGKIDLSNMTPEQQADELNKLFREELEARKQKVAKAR

“TCCAAAAGAAGCGGAGCTTC [P2 wild-type 20-mer promoter oligo]” was tested, and the binding signal (fold of wild type) [1] was 1.

TTCAAAAGAAGCGGAGCTTC (ssDNA, 5-iodo-dU at +2 [2 (5-iodo-dU, promoter position +2)]) [P2 5-IdU at +2]: binds [2].

TCCAAAAGAAGCGTAGCTTC (ssDNA, 5-iodo-dU at -11 [14 (5-iodo-dU, promoter position -11)]) [P2 5-IdU at -11]: binds (N4 mini-vRNAP Y678F).

TCCAAAAGAAGCGGAGCTTC (ssDNA, 5-iodo-dU at +3 [1 (5-iodo-dU, promoter position +3)]) [P2 5-IdU at +3]: binds (N4 mini-vRNAP Y678F); binds [2].

TCTAAAAGAAGCGGAGCTTC (ssDNA, 5-iodo-dU at +1 [3 (5-iodo-dU, promoter position +1)]) [P2 5-IdU at +1]: binds [2].
